Patent EP4792821A2 (Beijing Youcare Kechuang Pharmaceutical Technology Co., Ltd., dated 2026)
The star is where a group is joined. Succinyl(4-O-cholesteryl) = CC(C)CCC[C@@H](C)[C@H]1CC[C@H]2[C@@H]3CC=C4C[C@@H](OC(=O)CCC(=O)*)CC[C@]4(C)[C@H]3CC[C@]12C

B1: Compound 39 (peptide)
peptide: Ac-WDEFDASISQNEKINQSLEEIRKSDELLHNNALEAAAKK(Succinyl(4-O-cholesteryl))-NH2
SMILES: CC[C@H](C)[C@H](NC(=O)[C@H](CO)NC(=O)[C@H](C)NC(=O)[C@H](CC(=O)O)NC(=O)[C@H](Cc1ccccc1)NC(=O)[C@H](CCC(=O)O)NC(=O)[C@H](CC(=O)O)NC(=O)[C@H](Cc1c[nH]c2ccccc12)NC(C)=O)C(=O)N[C@@H](CO)C(=O)N[C@@H](CCC(N)=O)C(=O)N[C@@H](CC(N)=O)C(=O)N[C@@H](CCC(=O)O)C(=O)N[C@@H](CCCCN)C(=O)N[C@H](C(=O)N[C@@H](CC(N)=O)C(=O)N[C@@H](CCC(N)=O)C(=O)N[C@@H](CO)C(=O)N[C@@H](CC(C)C)C(=O)N[C@@H](CCC(=O)O)C(=O)N[C@@H](CCC(=O)O)C(=O)N[C@H](C(=O)N[C@@H](CCCNC(=N)N)C(=O)N[C@@H](CCCCN)C(=O)N[C@@H](CO)C(=O)N[C@@H](CC(=O)O)C(=O)N[C@@H](CCC(=O)O)C(=O)N[C@@H](CC(C)C)C(=O)N[C@@H](CC(C)C)C(=O)N[C@@H](Cc1c[nH]cn1)C(=O)N[C@@H](CC(N)=O)C(=O)N[C@@H](CC(N)=O)C(=O)N[C@@H](C)C(=O)N[C@@H](CC(C)C)C(=O)N[C@@H](CCC(=O)O)C(=O)N[C@@H](C)C(=O)N[C@@H](C)C(=O)N[C@@H](C)C(=O)N[C@@H](CCCCN)C(=O)N[C@@H](CCCCNC(=O)CCC(=O)O[C@H]1CC[C@@]2(C)C(=CC[C@H]3[C@@H]4CC[C@H]([C@H](C)CCCC(C)C)[C@@]4(C)CC[C@@H]32)C1)C(N)=O)[C@@H](C)CC)[C@@H](C)CC
B2: Compound 37 (peptide)
peptide: Ac-FDELVNKKIEKIEEVNKKSLKLLESEAAAKK(Succinyl(4-O-cholesteryl))-NH2
SMILES: CC[C@H](C)[C@H](NC(=O)[C@H](CCCCN)NC(=O)[C@H](CCCCN)NC(=O)[C@H](CC(N)=O)NC(=O)[C@@H](NC(=O)[C@H](CC(C)C)NC(=O)[C@H](CCC(=O)O)NC(=O)[C@H](CC(=O)O)NC(=O)[C@H](Cc1ccccc1)NC(C)=O)C(C)C)C(=O)N[C@@H](CCC(=O)O)C(=O)N[C@@H](CCCCN)C(=O)N[C@H](C(=O)N[C@@H](CCC(=O)O)C(=O)N[C@@H](CCC(=O)O)C(=O)N[C@H](C(=O)N[C@@H](CC(N)=O)C(=O)N[C@@H](CCCCN)C(=O)N[C@@H](CCCCN)C(=O)N[C@@H](CO)C(=O)N[C@@H](CC(C)C)C(=O)N[C@@H](CCCCN)C(=O)N[C@@H](CC(C)C)C(=O)N[C@@H](CC(C)C)C(=O)N[C@@H](CCC(=O)O)C(=O)N[C@@H](CO)C(=O)N[C@@H](CCC(=O)O)C(=O)N[C@@H](C)C(=O)N[C@@H](C)C(=O)N[C@@H](C)C(=O)N[C@@H](CCCCN)C(=O)N[C@@H](CCCCNC(=O)CCC(=O)O[C@H]1CC[C@@]2(C)C(=CC[C@H]3[C@@H]4CC[C@H]([C@H](C)CCCC(C)C)[C@@]4(C)CC[C@@H]32)C1)C(N)=O)C(C)C)[C@@H](C)CC
B3: Compound 36 (peptide)
peptide: Ac-VNKKIEEEKQSLKKQSDKIEESDENEAAAKK(Succinyl(4-O-cholesteryl))-NH2
SMILES: CC[C@H](C)[C@H](NC(=O)[C@H](CCCCN)NC(=O)[C@H](CC(=O)O)NC(=O)[C@H](CO)NC(=O)[C@H](CCC(N)=O)NC(=O)[C@H](CCCCN)NC(=O)[C@H](CCCCN)NC(=O)[C@H](CC(C)C)NC(=O)[C@H](CO)NC(=O)[C@H](CCC(N)=O)NC(=O)[C@H](CCCCN)NC(=O)[C@H](CCC(=O)O)NC(=O)[C@H](CCC(=O)O)NC(=O)[C@H](CCC(=O)O)NC(=O)[C@@H](NC(=O)[C@H](CCCCN)NC(=O)[C@H](CCCCN)NC(=O)[C@H](CC(N)=O)NC(=O)[C@@H](NC(C)=O)C(C)C)[C@@H](C)CC)C(=O)N[C@@H](CCC(=O)O)C(=O)N[C@@H](CCC(=O)O)C(=O)N[C@@H](CO)C(=O)N[C@@H](CC(=O)O)C(=O)N[C@@H](CCC(=O)O)C(=O)N[C@@H](CC(N)=O)C(=O)N[C@@H](CCC(=O)O)C(=O)N[C@@H](C)C(=O)N[C@@H](C)C(=O)N[C@@H](C)C(=O)N[C@@H](CCCCN)C(=O)N[C@@H](CCCCNC(=O)CCC(=O)O[C@H]1CC[C@@]2(C)C(=CC[C@H]3[C@@H]4CC[C@H]([C@H](C)CCCC(C)C)[C@@]4(C)CC[C@@H]32)C1)C(N)=O
B4: Compound 34 (peptide)
peptide: Ac-FDEEVNKKIEQSLKINQSLEEIRKSEAAAKK(Succinyl(4-O-cholesteryl))-NH2
SMILES: CC[C@H](C)[C@H](NC(=O)[C@H](CCC(=O)O)NC(=O)[C@H](CCC(=O)O)NC(=O)[C@H](CC(C)C)NC(=O)[C@H](CO)NC(=O)[C@H](CCC(N)=O)NC(=O)[C@H](CC(N)=O)NC(=O)[C@@H](NC(=O)[C@H](CCCCN)NC(=O)[C@H](CC(C)C)NC(=O)[C@H](CO)NC(=O)[C@H](CCC(N)=O)NC(=O)[C@H](CCC(=O)O)NC(=O)[C@@H](NC(=O)[C@H](CCCCN)NC(=O)[C@H](CCCCN)NC(=O)[C@H](CC(N)=O)NC(=O)[C@@H](NC(=O)[C@H](CCC(=O)O)NC(=O)[C@H](CCC(=O)O)NC(=O)[C@H](CC(=O)O)NC(=O)[C@H](Cc1ccccc1)NC(C)=O)C(C)C)[C@@H](C)CC)[C@@H](C)CC)C(=O)N[C@@H](CCCNC(=N)N)C(=O)N[C@@H](CCCCN)C(=O)N[C@@H](CO)C(=O)N[C@@H](CCC(=O)O)C(=O)N[C@@H](C)C(=O)N[C@@H](C)C(=O)N[C@@H](C)C(=O)N[C@@H](CCCCN)C(=O)N[C@@H](CCCCNC(=O)CCC(=O)O[C@H]1CC[C@@]2(C)C(=CC[C@H]3[C@@H]4CC[C@H]([C@H](C)CCCC(C)C)[C@@]4(C)CC[C@@H]32)C1)C(N)=O
B5: Compound 35 (peptide)
peptide: Ac-SISQVNEKINEIQSLEEKSDKLLKSEAAAKK(Succinyl(4-O-cholesteryl))-NH2
SMILES: CC[C@H](C)[C@H](NC(=O)[C@H](CO)NC(C)=O)C(=O)N[C@@H](CO)C(=O)N[C@@H](CCC(N)=O)C(=O)N[C@H](C(=O)N[C@@H](CC(N)=O)C(=O)N[C@@H](CCC(=O)O)C(=O)N[C@@H](CCCCN)C(=O)N[C@H](C(=O)N[C@@H](CC(N)=O)C(=O)N[C@@H](CCC(=O)O)C(=O)N[C@H](C(=O)N[C@@H](CCC(N)=O)C(=O)N[C@@H](CO)C(=O)N[C@@H](CC(C)C)C(=O)N[C@@H](CCC(=O)O)C(=O)N[C@@H](CCC(=O)O)C(=O)N[C@@H](CCCCN)C(=O)N[C@@H](CO)C(=O)N[C@@H](CC(=O)O)C(=O)N[C@@H](CCCCN)C(=O)N[C@@H](CC(C)C)C(=O)N[C@@H](CC(C)C)C(=O)N[C@@H](CCCCN)C(=O)N[C@@H](CO)C(=O)N[C@@H](CCC(=O)O)C(=O)N[C@@H](C)C(=O)N[C@@H](C)C(=O)N[C@@H](C)C(=O)N[C@@H](CCCCN)C(=O)N[C@@H](CCCCNC(=O)CCC(=O)O[C@H]1CC[C@@]2(C)C(=CC[C@H]3[C@@H]4CC[C@H]([C@H](C)CCCC(C)C)[C@@]4(C)CC[C@@H]32)C1)C(N)=O)[C@@H](C)CC)[C@@H](C)CC)C(C)C

Target: F protein of RSV A long virus strain (Respiratory Syncytial Virus (RSV) A …, UniProt P12568 26-574)
Experiment: cell-based or functional assay

Chain of F protein of RSV A long virus strain (P12568 26-574): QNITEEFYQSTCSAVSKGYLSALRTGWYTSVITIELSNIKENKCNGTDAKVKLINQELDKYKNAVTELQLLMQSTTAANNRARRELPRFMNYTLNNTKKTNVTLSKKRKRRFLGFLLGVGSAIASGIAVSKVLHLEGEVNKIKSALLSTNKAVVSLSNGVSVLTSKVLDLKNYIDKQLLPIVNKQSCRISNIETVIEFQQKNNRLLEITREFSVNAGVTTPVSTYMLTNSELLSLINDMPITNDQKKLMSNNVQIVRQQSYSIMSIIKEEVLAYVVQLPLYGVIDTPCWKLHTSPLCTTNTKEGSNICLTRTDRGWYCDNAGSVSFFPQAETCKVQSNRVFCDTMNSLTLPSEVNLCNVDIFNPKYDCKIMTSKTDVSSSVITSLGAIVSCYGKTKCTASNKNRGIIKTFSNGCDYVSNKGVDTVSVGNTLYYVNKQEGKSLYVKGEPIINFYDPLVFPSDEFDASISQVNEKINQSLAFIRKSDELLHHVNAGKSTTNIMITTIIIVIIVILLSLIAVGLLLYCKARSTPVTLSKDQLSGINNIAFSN

Row | Binder | IC50/nM, plaque reduction, RSV A long on HEp-2 cells (Table 2, Cell fusion inhibition activity)
1 | Ac-FDASLLKIEEEKKKIEELLKLHNESDKKLEEV-NH2 [Compound 4] | > 8000 nM
2 | B1 | 113 nM
3 | B2 | 5230 nM
4 | B3 | 6820 nM
5 | B4 | > 2000 nM
6 | Ac-FEVNRRRIEQSLEKSLESLEEEEHSDKKLHNELH-NH2 [Compound 46] | > 8000 nM
7 | B5 | 5530 nM
